# Laboratory results: patent publication US20150232562A1 (Ablynx, published 2015)
# Numbering of substitutions follows the chain as printed.
# B1: 13F71/1-123 (VHH)
# VHH: EVQLVESGGGLVQAGGSLRLSCVASGRTFSNYALAWFRQAPGKEREFVAAINWRSGGSTYYADSVKGRFTISRDNAKNTVYLQMNSLKPEDTAVYYCAADLIVATLPGEYDYWGQGTQVTVSS
# notes: C-term myc-His6 tag
# B2: 11A111/1-126 (VHH)
# VHH: EVQLVESGGGLVQAGGSLGLSCAAAGRTFSSSLMGWFRQAPGKEREFVAAITDNGGSTYYADSVKGRFTISRDNAKNSVYLQMNSLKPEDTAIYYCAARRSGYYSLSTSPHQYAYWGQGTQVTVSS
# notes: C-term myc-His6 tag
# B3: 11A101/1-120 (VHH)
# VHH: EVQLVESGGGLVQAGGSLRLSCAASGRTFNAMGWFRQAPGKEREFVAAISRSPGVTYYADSVKGRFTTSRDNAKNTVYLQMNDLKPEDTAVYYCAADFYLATLAHEYDYWGQGTQVTVSS
# notes: C-term myc-His6 tag
# B4: 27B3 (VHH)
# VHH: EVQLVESGGGLVQAGGSLTLSCTASETTVRIRTMAWYRQPPGNQREWVATIGSNGFATYPDSVKGRFTISRDNAKNTVYLQMNSLKPEDTAVYYCRDINRDIWGQGSQVTVSS
# notes: C-term myc-His6 tag
# B5: 27E5 (VHH)
# VHH: B4 VHH
# notes: C-term myc-His6 tag
# B6: 27D6 (VHH)
# VHH: B4 VHH
# notes: C-term myc-His6 tag
# B7: 30D10 (second entry, SEQ ID NO: 2204) (VHH)
# VHH: B4 VHH
# notes: C-term myc-His6 tag
# B8: 27F2 (VHH)
# VHH: EVQLVESGGGLVQAGGSLRLSCAASGIISSFRTLAWYRQAPGKQRDWVATISSAGGTAYADAVKGRFTISISRDNVEYTVDLQMDSLKPEDTAVYYCRDINGDYWGQGTQVTVSS
# notes: C-term myc-His6 tag
# B9: 17A3 (VHH)
# VHH: EVQLVESGGGLVQAGGSLSLSCAASATLHRFDNNWYRQAPGKQRELVATIAHDGSTNYANSVKGRFTISRDNARDTLFLQMHALQPEDTAVYMCNLHRWGLNYWGQGTQVTVSS
# notes: C-term myc-His6 tag
# B10: 15H4 (VHH)
# VHH: EVQLVESGGGLVQAGGSLTLSCAPSESTVSFNTVAWYRQAPGEQREWVATISRQGMSTYPDSVKGRFTISRDNAKNTVYLQMNNLKPEDTAVYYCRDINHDIWGRGSQVTVSS
# notes: C-term myc-His6 tag
# B11: 12D51/1-120 (VHH)
# VHH: EVQLVESGGGLVQPGGSLRLSCAASGSAFSIKSMGWYRQAPGKQRELAAVIISSGTTTYADSVKGRFTISRDSAKNTVYLQMDSLKPEDTAVYVCNAVYVSTWGNGYDYWGQGTQVTVSS
# notes: C-term myc-His6 tag
# B12: 15D10 (VHH)
# VHH: EVQLVESGGGLVQPGGSLKLSCAASGFTFSSYRMYWVRQAPGKGLEWVSAIKPDGSITYYADSVKGRFTISRDNAKNTVYLQMNSLKPEDTAVYYCATDCGVPGFGWTFSSWGQGTQVTVSS
# notes: C-term myc-His6 tag
# B13: 27E7 (VHH)
# VHH: EVQLVESGGGLVQAGGSLRLSCAASGITFRRYDMGWYRQFPGKERELVATILSEGDTNYVDPVKGRFTISRDNAKNTVYLQMNDLKPEDTAVYYCNGVWRAIGRTYWGQGTQVTVSS
# notes: C-term myc-His6 tag
# B14: 46D4 (VHH)
# VHH: EVQLVESGGGLVQPGGSLRLSCAASGFIFDDYAMSWVRQAPGKGLEWVSSINWSGTHTDYAEDMKGRFTISRDNAKKTLYLQMNSLQSEDTAVYYCAKGWGPAVTSIPVATLGTQVTVSS
# notes: C-term myc-His6 tag
# B15: 11A22/1-122 (VHH)
# VHH: EVQLVESGGGLVQAGGSLRLSCAASGRTFSSYAMAWFRQAPGTEREFIAGIRWSDGSTYYADSVKGRFTISRDNAKNTVYLQMNSLKPEDTAVYYCAADFYVSTLAHEYDYWGQGTQVTVSS
# notes: C-term myc-His6 tag
# B16: 12E11/1-122 (VHH)
# VHH: B15 VHH with T43K, I48V, A49G, N77I
# notes: C-term myc-His6 tag
# B17: 12D44/1-122 (VHH)
# VHH: B15 VHH with E1K, D73A, S85G
# notes: C-term myc-His6 tag
# B18: 22B12/1-124 (VHH)
# VHH: EVQLVESGGGLVQAGGSLRLSCAASGRTFSSYAMAWFRQAPGKEREFVAGINKSGGITHSADSVKGRFTISRDNAKNTVYLQMNSLKPEDTAVYYCAADAYTVIATLPHEYDYWGQGTQVTVSS
# notes: C-term myc-His6 tag
# B19: 17G11 (VHH)
# VHH: EVQLVESGGGLVQAGGSLRLSCAASGSTFSINRWGWYRQAPGKQRELVAAIDDGGNTEYSDFVNGRFTISRDNPETAVHLQMNSLKLEDTAVYYCNAKQLPYLQNFWGQGTQVTVSS
# notes: C-term myc-His6 tag
# B20: 47G11 (VHH)
# VHH: EVQLVESGGGLVQPGGSLRLSCAASGRIFYPMGWFRQAPGKEREFVAAIGSGDIITYYADSVKGRFTISRDNAKNTVYLQMNSLKPEDTAVYYCASSRDYSRSRDPTSYDRWGQGTQVTVSS
# notes: C-term myc-His6 tag
# B21: 13G111/1-123 (VHH)
# VHH: EVQLVESGGGLVQAGGSLRLSCAASGRTFSSYAMGWFRQAPGKERAFVAAIRWSGGNTYYADSVKGRFTISRDNAKNTVYLQMNSLKPEDTAVYYCAADTFTLSTLSHEYDYWGQGTQVTVSS
# notes: C-term myc-His6 tag
# B22: 22B101/1-123 (VHH)
# VHH: EVQLVESGGGLVQTGGSLRLSCAASGPTFSDYAIGWFRQAPGKEREFVAAISSSGISTIYGDSVKGRFDISRDNAKNTVYLQMNRLKPEDTAVYYCAARLFMATPNQGQYYYWGQGTQVTVSS
# notes: C-term myc-His6 tag
# B23: 11A71A/1-116 (VHH)
# VHH: EVQLVESGGGLVQPGGSLRLSCAASGNIDGIITMGWYRQRPGKPREWVGTINSGGDTNYAGSVKGRFTIARDDAKNTMYLQMNGMKPEDTAVYYCKMNRAGIYEYWGQGTQVTVSS
# notes: C-term myc-His6 tag
# B24: 17A5 (VHH)
# VHH: EVQLVESGGGLVQPGGSLRLSCAASGFTFDDYSMSWVRQATGKGLEWVSGISWNGGSTNYADSVKGRFTISRDNVKNTLYLQMNSLKSEDTAVYYCAKDLGNSGRGPYTNWGQGTQVTVSS
# notes: C-term myc-His6 tag
# B25: 13G74/1-125 (VHH)
# VHH: EVQLVESGGGLVQAGGSLRLSCATSGRTFSTYASMGWFRQTPGKEREFVAAITSSGSTNYADSVKGRFTISRDNAKNTVYLQMNSLKPEDTAVYYCGARVNYAAYSRLEHDYHYWGQGTQVTVSS
# notes: C-term myc-His6 tag
# B26: 13C2 (VHH)
# VHH: EVQLVESGGGLVQAGGSLRLSCAASGSTFSINRMAWYRQSPGKQRELVAAVDNDDNTEYSDSVAGRFTISRDNAKNAVHLQMNSLRLEDTAVYYCNAKQLPYLQNFWGQGTQVTVSS
# notes: C-term myc-His6 tag
# B27: 47E5 (VHH)
# VHH: EVQLVESGGGLVQAGGSLRLSCAASASIFGFDSMGWYRQAPGNERILVAIISNGGTTSYRDSVKGRFTIARDNAKNTVSLQMNSLKPEDTAVYYCNLDRRSYNGRQYWGQGTQVTVSS
# notes: C-term myc-His6 tag
# B28: 13G71/1-124 (VHH)
# VHH: EVQLVESGGGLVQAGGSLRLSCAASGRAFSSYAMGWFRQAPGKERDFVAAITSSGSTNYADSVKGRFTISRDNAKNTVYLQMNSLKPEDTAVYYCGARVNYAAYSRLEHDYHYWGQGTQVTVSS
# notes: C-term myc-His6 tag
# B29: 15D2 (VHH)
# VHH: EVQLVESGGGLVQAGGSLRLSCVVSGVFGPIRAMAWYRQAPGKQRDWVATIGSSGHPVYTDSVKGRFTFSKDGAKNTVYLQMNSLKPEDTAVYYCRDINRDYWGQGTQVTVSS
# notes: C-term myc-His6 tag
# B30: 14D4 (VHH)
# VHH: EVQLVESGGGLVQAGDSLRLSCAASGRALDTYVMGWFRQAPGDGREFVAHIFRSGITSYASSVKGRFTISRDNAKNTVYLQMASLKPEDTAAYYCAARPSDTTWSESSASWGQGTQVTVSS
# notes: C-term myc-His6 tag
# B31: 14H61/1-122 (VHH)
# VHH: EVQLVESGGGLVQAGGSLRLSCAASGRTFSRFAMGWFRQAPGKEREFVAAVRWSDDYTYYADSVKGRFTISRDNAKNTVYLQMNSLSPEDTAVYYCAADEILATLPHEYDYWGQGTQVTVSS
# notes: C-term myc-His6 tag
# B32: 15E10 (VHH)
# VHH: EVQLVESGGGLVQAGGSLKLSCVASGITFFRYTMGWYRQAPGKERELVAEISSADEPSFADAVKGRFTISRDNAKNTVVLQMNGLKPEDTAVYYCKGSWSYPGLTYWGKGTLVTVSS
# notes: C-term myc-His6 tag
# B33: 17D7 (VHH)
# VHH: EVQLVESGGGLVQPGGSLRLSCAASGFTLDYCAIGWFRQAPGKEREGVSCISSSDGSTYYADSVKGRFTISRDNAKNTVYLQMNSLKPEDTAVYYCATDRGSGTCYADFGSWGQGTQVTVSS
# notes: C-term myc-His6 tag
# B34: 17B7 (VHH)
# VHH: EVQLVESGGGLVQAGGSLRLSCAASGIISSFRTMAWYRQAPGKQRDWVATIGSDGLANYADSVKGRFTISRDNAKKTVYLQMNSLKPEDTAVYFCRDINRDYWGQGTQVTVSS
# notes: C-term myc-His6 tag
# B35: 15B6 (VHH)
# VHH: B34 VHH with A14P, S29G, K43N, D54A, N58S, K64R, I69L, V92I, F94Y, R100G
# notes: C-term myc-His6 tag
# B36: 17A6 (VHH)
# VHH: EVQLVESGGGLVQPGGSLRLSCAASGFTFSSYAMSWVRQAPGKGLEWVSAISSGGGSITTYADSVKGRFTISTDNAKNTLYLQMSSLKPEDTALYYCAKARSSSSYYDFGSWGQGTQVTVSS
# notes: C-term myc-His6 tag
# Molecular target: T1, recombinant human ErbB2/Fc chimera (human, UniProt P04626 23-652)
# T1 construct: bought from R&D Systems; also called rhErbB2-Fc; rhErb2-Fc; Fc part of the bought chimera not given; not described
# Assay: ELISA, coated ErbB2/Fc
row,binding result,Binder
1,binds,B1
2,binds,B2
3,binds,B3
4,binds,B4
5,binds,B5
6,binds,B6
7,binds,B7
8,binds,B8
9,binds,B9
10,binds,B10
11,binds,B11
12,binds,B12
13,binds,B13
14,binds,B14
15,binds,B15
16,binds,B16
17,binds,B17
18,binds,B18

row,binding result,Binder
1,binds,B19
2,binds,B20
3,binds,B21
4,binds,B22
5,binds,B23
6,binds,B24
7,binds,B25
8,binds,B26
9,binds,B27
10,binds,B28
11,binds,B29
12,binds,B30
13,binds,B31
14,binds,B32
15,binds,B33
16,binds,B34
17,binds,B35
18,binds,B36
